B1: 9G8-mIgG1 (antibody, V domains shown)
VH: EVQLVQSGAEVKKPGESLKISCKGSGYSFTSYWIGWVRQMPGKGLEWMGIIYPGDSDTRYSPSFQGQVTISADKSISTAYLQWSSLKASDTAMYYCARGVSGIYNLHGFDIWGQGTLVTVSS
VL: DIQMTQSPSSLSASVGDRVTITCRASQSISSYLNWYQQKPGKAPKLLIYAASSLQSGVPSRFSGSGSGTDFTLTISSLQPEDFATYYCQQGRFGSPFTFGQGTKVEIKR
notes: Control anti-CD19 antibody with monkey cross-activity
B2: FMC63-mIgG1 (antibody, V domains shown)
VH: EVKLQESGPGLVAPSQSLSVTCTVSGVSLPDYGVSWIRQPPRKGLEWLGVIWGSETTYYNSALKSRLTIIKDNSKSQVFLKMNSLQTDDTAIYYCAKHYYYGGSYAMDYWGQGTSVTVSS
VL: DIQMTQTTSSLSASLGDRVTISCRASQDISKYLNWYQQKPDGTVKLLIYHTSRLHSGVPSRFSGSGSGTDYSLTISNLEQEDIATYFCQQGNTLPYTFGGGTKLEITR
notes: Parent murine antibody; also called murine antibody FMC63

Experiments:
[1] = biological target: T1, monkey CD19, full length, on HEK293T cells (monkey, UniProt P15391 20-556 (human entry)); experiment: FACS titration on HEK293T-monkey CD19 cells
T1 construct: The entry holds the signal peptide; also called HEK293T-monkey CD19
T1 chain: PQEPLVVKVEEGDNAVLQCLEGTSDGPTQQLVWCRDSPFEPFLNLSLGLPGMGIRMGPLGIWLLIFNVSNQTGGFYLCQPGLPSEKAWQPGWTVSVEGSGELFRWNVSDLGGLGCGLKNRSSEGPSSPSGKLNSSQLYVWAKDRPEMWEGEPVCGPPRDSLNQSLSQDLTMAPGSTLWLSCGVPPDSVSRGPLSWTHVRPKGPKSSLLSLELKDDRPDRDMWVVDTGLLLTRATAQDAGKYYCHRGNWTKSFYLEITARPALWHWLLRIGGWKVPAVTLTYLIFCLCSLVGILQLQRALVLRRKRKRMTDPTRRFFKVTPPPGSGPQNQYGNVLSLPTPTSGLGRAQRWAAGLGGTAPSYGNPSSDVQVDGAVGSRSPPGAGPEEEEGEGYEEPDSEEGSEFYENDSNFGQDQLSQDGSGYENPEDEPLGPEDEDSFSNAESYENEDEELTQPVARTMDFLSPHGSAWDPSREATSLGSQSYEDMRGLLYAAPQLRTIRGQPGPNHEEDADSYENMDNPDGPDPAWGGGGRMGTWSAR
Procedure: (§1) For suspension cells Raji, the medium supernatant was discarded by direct centrifugation, and the cell pellet was washed twice with PBS. After cell counting of the cells obtained in the last step, the cell pellet was resuspended to 2×10⁶ cells/mL with a blocking solution [PBS+2% (w/w) BSA] and added into a 96-well FACS reaction plate at 50 μL/well. […] After the plate was centrifuged and washed 5 times with a PBS buffer, the results were assayed and analyzed by FACS (FACS Canto™, purchased from BD Biosciences). Data analysis was performed by software (CellQuest) to obtain the mean fluorescence intensity (MFI) of the cells. Then, analysis was performed by software (GraphPad Prism8), data were fitted, and EC₅₀ values were calculated.
(§2) HEK293T-monkey CD19 cells were subjected to the FACS assay and data analysis according to the method described in Example 4.2.

[2] = biological target: T2, cynomolgus monkey CD19 on peripheral blood B cells (cynomolgus monkey (Macaca fascicularis), UniProt A0A2K5W8L9 20-557); experiment: FACS on cynomolgus monkey PBMC, gated on CD20-positive B cells
T2 construct: whole, on cells; also called cynomolgus monkey B cells
T2 sequence: T1 chain
Procedure: Monkey peripheral blood mononuclear cells were extracted from fresh cynomolgus monkey peripheral blood (purchased from Shanghai Medicilon Inc.) according to Ficoll-Paque Plus (purchased from GE Healthcare, Cat. No. 171440-02). […] The cells were incubated at room temperature for 1 h. […] The cells were incubated at room temperature for 30 min in the dark, washed 5 times, gently resuspended in PBS, and assayed and analyzed by FACS (FACS Canto™, purchased from BD Biosciences), in which CD20 was used as a marker for B cells.

[3] = biological target: T1, monkey CD19, full length, on HEK293T …; experiment: FACS on HEK293T-monkey CD19 cells
Procedure: as §1, §2

murine CD19 protein = biological target: T3, murine CD19 protein (murine, UniProt P25918 19-287, limits assumed); experiment: ELISA, murine CD19 coated
T3 construct: also called mouse CD19-his protein
T3 sequence (looked up): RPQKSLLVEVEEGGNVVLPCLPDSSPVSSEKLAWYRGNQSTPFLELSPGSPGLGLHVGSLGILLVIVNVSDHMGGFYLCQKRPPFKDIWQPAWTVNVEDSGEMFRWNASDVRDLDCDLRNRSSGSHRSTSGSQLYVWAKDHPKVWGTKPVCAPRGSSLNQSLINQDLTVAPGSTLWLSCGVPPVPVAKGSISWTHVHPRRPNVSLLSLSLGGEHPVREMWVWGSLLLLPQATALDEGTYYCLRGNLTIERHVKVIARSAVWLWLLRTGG

monkey CD19-his protein = monkey CD19-his protein (monkey); experiment: ELISA, monkey CD19 coated
Procedure: After incubation for 2 h at 37° C., the plate was washed 3 times with PBS. […] After incubation for 1 h at 37° C., the plate was washed 5 times with PBS. A TMB substrate was added at 50 μL/well. After incubation at room temperature for 10 min, a stop solution (1.0 N HCl) was added at 50 μL/well. The OD450 nm values were read on an ELISA microplate reader (Multimode Plate Reader, EnSight, purchased from Perkin Elmer). […] The negative control antibody mIgG1 was an antibody against hen egg lysozyme, anti-hel-mIgG1 (purchased from Biointron, Cat. No. B118301), and the data in the table were OD450 nm values.
IgG control was mIgG1, S003-NB151-89 was a clone that is selected from a library constructed by peripheral blood collected from Alpaca immunized by human CD19-His and can bind to a monkey CD19-His protein, and was used as a positive control, and the data in the table were OD450 nm values.

Binder | EC50 (read off the curve) [1] [nM] | proportion of positive cells to B cells (%) at 1 nM [2] [%] | proportion of positive cells to B cells (%) at 10 nM [2] [%] | proportion of positive cells to B cells (%) at 100 nM [2] [%] | EC50 [3] [nM] | maximum mean fluorescence intensity [3] [MFI] | OD450 at 0.0001 nM (murine CD19 protein) [OD450] | OD450 at 0.001 nM (murine CD19 protein) [OD450] | OD450 at 0.01 nM (murine CD19 protein) [OD450] | OD450 at 0.10 nM (murine CD19 protein) [OD450] | OD450 at 1.00 nM (murine CD19 protein) [OD450] | OD450 at 10.00 nM (murine CD19 protein) [OD450] | OD450 at 100.00 nM (murine CD19 protein) [OD450] | OD450 at 0.0001 nM (monkey CD19-his protein) [OD450] | OD450 at 0.001 nM (monkey CD19-his protein) [OD450] | OD450 at 0.01 nM (monkey CD19-his protein) [OD450] | OD450 at 0.10 nM (monkey CD19-his protein) [OD450] | OD450 at 1.00 nM (monkey CD19-his protein) [OD450] | OD450 at 10.00 nM (monkey CD19-his protein) [OD450] | OD450 at 100.00 nM (monkey CD19-his protein) [OD450]
B1 | ~0.4 | 3 | 14 | 71 | 2.08 | 19500 | – | – | – | – | – | – | – | – | – | – | – | – | – | –
B2 | – | – | – | – | – | – | 0.06 | 0.06 | 0.05 | 0.05 | 0.06 | 0.07 | 0.1 | 0.05 | 0.05 | 0.05 | 0.05 | 0.05 | 0.05 | 0.09
